Reference: PMC9482650, “Quantitative fragmentomics allow affinity mapping of interactomes” (Nature Communications, 2022)

B1: PRKD2, Q9BZL6 (peptide)
chain: QGLAERISVL
B2: TRPV3, Q8NET8 (peptide)
chain: EVEEFPETSV

These binders were tested against SNX27, Q96L92 (assay: holdup assay). Conditions: plain residues with an end cap or a label only (N-terminal biotin on a linker: ado-ado).
Parameters: key: below the threshold = too weak to quantify, mostly under pKd 3.1 to 4

| Binder | pKd |
| --- | --- |
| B1 | 4.78 |
| B2 | 5.83 |

These binders were tested against T1, MPP7, Q5T2T1 (assay: holdup assay). Conditions: plain residues with an end cap or a label only (N-terminal biotin on a linker: ado-ado).
T1 sequence (Q5T2T1 134-230, limits assumed, looked up): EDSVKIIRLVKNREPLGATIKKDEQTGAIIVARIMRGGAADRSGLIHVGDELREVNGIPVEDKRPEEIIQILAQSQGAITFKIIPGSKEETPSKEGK
Parameters: key: below the threshold = too weak to quantify, mostly under pKd 3.1 to 4

| Binder | pKd |
| --- | --- |
| B1 | below the threshold |
| B2 | 3.57 |

What follows are binders tested against T2, SYNJ2BP, P57105 (assay: holdup assay). Conditions: plain residues with an end cap or a label only (N-terminal biotin on a linker: ado-ado).
T2 sequence (P57105 8-110, limits assumed, looked up): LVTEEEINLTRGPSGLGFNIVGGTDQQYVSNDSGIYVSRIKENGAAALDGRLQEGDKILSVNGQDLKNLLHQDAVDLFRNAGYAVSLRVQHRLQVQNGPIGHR
Parameters: key: below the threshold = too weak to quantify, mostly under pKd 3.1 to 4

| Binder | pKd |
| --- | --- |
| B1 | below the threshold |
| B2 | 5.2 |

The binders below were run against SCRIB_2, Q14160 (assay: holdup assay). Conditions: plain residues with an end cap or a label only (N-terminal biotin on a linker: ado-ado).
Sequence of SCRIB_2, Q14160 (Q14160 857-960): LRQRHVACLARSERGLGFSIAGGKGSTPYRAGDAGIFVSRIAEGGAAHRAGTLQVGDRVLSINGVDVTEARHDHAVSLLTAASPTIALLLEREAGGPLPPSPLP
Parameters: key: below the threshold = too weak to quantify, mostly under pKd 3.1 to 4

| Binder | pKd |
| --- | --- |
| B1 | below the threshold |
| B2 | 4.94 |

What follows are binders tested against T3, GRIP1_2, Q9Y3R0 (assay: holdup assay). Conditions: plain residues with an end cap or a label only (N-terminal biotin on a linker: ado-ado).
T3 sequence (Q9Y3R0 145-248, limits assumed, looked up): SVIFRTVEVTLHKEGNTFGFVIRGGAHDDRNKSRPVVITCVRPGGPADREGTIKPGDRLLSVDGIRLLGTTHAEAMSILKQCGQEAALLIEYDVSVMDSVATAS
Parameters: key: below the threshold = too weak to quantify, mostly under pKd 3.1 to 4

| Binder | pKd |
| --- | --- |
| B1 | below the threshold |
| B2 | 3.59 |

The binders below were run against T4, LIN7C, Q9NUP9 (assay: holdup assay). Conditions: plain residues with an end cap or a label only (N-terminal biotin on a linker: ado-ado).
T4 sequence (Q9NUP9 88-185, limits assumed, looked up): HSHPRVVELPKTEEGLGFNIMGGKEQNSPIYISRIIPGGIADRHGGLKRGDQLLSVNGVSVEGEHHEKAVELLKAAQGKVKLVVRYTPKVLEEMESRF
Parameters: key: below the threshold = too weak to quantify, mostly under pKd 3.1 to 4

| Binder | pKd |
| --- | --- |
| B1 | 4.12 |
| B2 | 4.51 |

The binders below were run against LAP2, Q96RT1 (assay: holdup assay). Conditions: plain residues with an end cap or a label only (N-terminal biotin on a linker: ado-ado).
Sequence of LAP2, Q96RT1 (Q96RT1 other isoform, or with tags, fused parts or gaps): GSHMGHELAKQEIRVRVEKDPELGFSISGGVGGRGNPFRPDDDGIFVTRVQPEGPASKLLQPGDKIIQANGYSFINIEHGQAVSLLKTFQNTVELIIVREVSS
Parameters: key: below the threshold = too weak to quantify, mostly under pKd 3.1 to 4

| Binder | pKd |
| --- | --- |
| B1 | below the threshold |
| B2 | 4.93 |

What follows are binders tested against DLG4_3, P78352 (assay: holdup assay). Conditions: plain residues with an end cap or a label only (N-terminal biotin on a linker: ado-ado).
Sequence of DLG4_3, P78352 (P78352 306-403): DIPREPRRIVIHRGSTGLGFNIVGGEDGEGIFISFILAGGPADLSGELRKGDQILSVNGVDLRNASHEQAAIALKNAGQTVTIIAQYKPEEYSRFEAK
Parameters: key: below the threshold = too weak to quantify, mostly under pKd 3.1 to 4

| Binder | pKd |
| --- | --- |
| B1 | below the threshold |
| B2 | 4.2 |

What follows are binders tested against T5, GRIP1_5, Q9Y3R0 (assay: holdup assay). Conditions: plain residues with an end cap or a label only (N-terminal biotin on a linker: ado-ado).
T5 sequence (Q9Y3R0 568-668, limits assumed, looked up): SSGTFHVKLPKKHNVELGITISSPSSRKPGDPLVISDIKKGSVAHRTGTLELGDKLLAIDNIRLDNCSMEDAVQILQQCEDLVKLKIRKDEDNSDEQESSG
Parameters: key: below the threshold = too weak to quantify, mostly under pKd 3.1 to 4

| Binder | pKd |
| --- | --- |
| B1 | below the threshold |
| B2 | below the threshold |

Each binder was assayed against GRID2IP_1, A4D2P6 (assay: holdup assay). Conditions: plain residues with an end cap or a label only (N-terminal biotin on a linker: ado-ado).
Sequence of GRID2IP_1, A4D2P6 (A4D2P6 1-87): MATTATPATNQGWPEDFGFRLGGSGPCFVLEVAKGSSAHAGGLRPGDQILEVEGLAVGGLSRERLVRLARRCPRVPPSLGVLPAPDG
Parameters: key: below the threshold = too weak to quantify, mostly under pKd 3.1 to 4

| Binder | pKd |
| --- | --- |
| B1 | below the threshold |
| B2 | 3.7 |

These binders were tested against MAGI2_4, Q86UL8 (assay: holdup assay). Conditions: plain residues with an end cap or a label only (N-terminal biotin on a linker: ado-ado).
Sequence of MAGI2_4, Q86UL8 (Q86UL8 772-865): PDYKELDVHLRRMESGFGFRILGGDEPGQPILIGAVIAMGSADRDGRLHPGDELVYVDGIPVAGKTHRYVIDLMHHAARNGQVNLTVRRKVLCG
Parameters: key: below the threshold = too weak to quantify, mostly under pKd 3.1 to 4

| Binder | pKd |
| --- | --- |
| B1 | below the threshold |
| B2 | 3.68 |

Each binder was assayed against SCRIB_1, Q14160 (assay: holdup assay). Conditions: plain residues with an end cap or a label only (N-terminal biotin on a linker: ado-ado).
Sequence of SCRIB_1, Q14160 (Q14160 718-814): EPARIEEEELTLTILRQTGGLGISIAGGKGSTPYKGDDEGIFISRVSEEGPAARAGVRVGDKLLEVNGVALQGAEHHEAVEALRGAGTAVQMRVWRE
Parameters: key: below the threshold = too weak to quantify, mostly under pKd 3.1 to 4

| Binder | pKd |
| --- | --- |
| B1 | 3.77 |
| B2 | 4.54 |

The binders below were run against AHNAK1, Q09666 (assay: holdup assay). Conditions: plain residues with an end cap or a label only (N-terminal biotin on a linker: ado-ado).
Sequence of AHNAK1, Q09666 (Q09666 4-100): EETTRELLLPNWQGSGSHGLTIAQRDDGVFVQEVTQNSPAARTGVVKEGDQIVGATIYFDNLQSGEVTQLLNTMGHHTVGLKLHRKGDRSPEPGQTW
Parameters: key: below the threshold = too weak to quantify, mostly under pKd 3.1 to 4

| Binder | pKd |
| --- | --- |
| B1 | below the threshold |
| B2 | below the threshold |

Each binder was assayed against T6, GRIP1_3, Q9Y3R0 (assay: holdup assay). Conditions: plain residues with an end cap or a label only (N-terminal biotin on a linker: ado-ado).
T6 sequence (Q9Y3R0 247-346, limits assumed, looked up): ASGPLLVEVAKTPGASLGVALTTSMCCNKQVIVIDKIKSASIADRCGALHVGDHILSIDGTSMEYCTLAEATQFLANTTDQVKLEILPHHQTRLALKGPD
Parameters: key: below the threshold = too weak to quantify, mostly under pKd 3.1 to 4

| Binder | pKd |
| --- | --- |
| B1 | below the threshold |
| B2 | 3.49 |

Each binder was assayed against DLG1_3, Q12959 (assay: holdup assay). Conditions: plain residues with an end cap or a label only (N-terminal biotin on a linker: ado-ado).
Sequence of DLG1_3, Q12959 (Q12959 457-571): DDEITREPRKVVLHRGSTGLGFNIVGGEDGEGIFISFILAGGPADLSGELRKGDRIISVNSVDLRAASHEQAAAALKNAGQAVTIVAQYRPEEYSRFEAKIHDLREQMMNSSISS
Parameters: key: below the threshold = too weak to quantify, mostly under pKd 3.1 to 4

| Binder | pKd |
| --- | --- |
| B1 | below the threshold |
| B2 | 4.64 |

These binders were tested against T7, CARD11, Q9BXL7 (assay: holdup assay). Conditions: plain residues with an end cap or a label only (N-terminal biotin on a linker: ado-ado).
T7 sequence (Q9BXL7 662-765, limits assumed, looked up): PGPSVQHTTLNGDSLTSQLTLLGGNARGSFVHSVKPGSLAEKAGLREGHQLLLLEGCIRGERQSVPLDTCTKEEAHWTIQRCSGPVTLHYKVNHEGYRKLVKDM
Parameters: key: below the threshold = too weak to quantify, mostly under pKd 3.1 to 4

| Binder | pKd |
| --- | --- |
| B1 | below the threshold |
| B2 | 3.49 |

These binders were tested against FRMPD3, Q5JV73 (assay: holdup assay). Conditions: plain residues with an end cap or a label only (N-terminal biotin on a linker: ado-ado).
Sequence of FRMPD3, Q5JV73 (Q5JV73 12-100): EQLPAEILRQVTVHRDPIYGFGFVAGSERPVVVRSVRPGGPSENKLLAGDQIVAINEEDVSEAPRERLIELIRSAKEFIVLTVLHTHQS
Parameters: key: below the threshold = too weak to quantify, mostly under pKd 3.1 to 4

| Binder | pKd |
| --- | --- |
| B1 | below the threshold |
| B2 | 3.59 |

The binders below were run against T8, APBA1_2, Q02410 (assay: holdup assay). Conditions: plain residues with an end cap or a label only (N-terminal biotin on a linker: ado-ado).
T8 sequence (Q02410 742-832, limits assumed, looked up): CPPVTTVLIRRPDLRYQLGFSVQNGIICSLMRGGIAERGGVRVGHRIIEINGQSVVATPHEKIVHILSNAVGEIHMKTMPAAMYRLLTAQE
Parameters: key: below the threshold = too weak to quantify, mostly under pKd 3.1 to 4

| Binder | pKd |
| --- | --- |
| B1 | 4.05 |
| B2 | 4.33 |

What follows are binders tested against T9, DFNB31_3, Q9P202 (assay: holdup assay). Conditions: plain residues with an end cap or a label only (N-terminal biotin on a linker: ado-ado).
T9 sequence (Q9P202 811-907, limits assumed, looked up): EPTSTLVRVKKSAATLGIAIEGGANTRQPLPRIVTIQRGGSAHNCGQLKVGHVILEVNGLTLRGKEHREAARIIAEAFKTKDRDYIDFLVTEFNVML
Parameters: key: below the threshold = too weak to quantify, mostly under pKd 3.1 to 4

| Binder | pKd |
| --- | --- |
| B1 | 4.26 |
| B2 | below the threshold |

What follows are binders tested against GRIP2_7, Q9C0E4 (assay: holdup assay). Conditions: plain residues with an end cap or a label only (N-terminal biotin on a linker: ado-ado).
Sequence of GRIP2_7, Q9C0E4 (Q9C0E4 934-1023): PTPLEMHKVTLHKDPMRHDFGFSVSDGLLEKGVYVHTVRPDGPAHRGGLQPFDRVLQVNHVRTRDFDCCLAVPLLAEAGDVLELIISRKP
Parameters: key: below the threshold = too weak to quantify, mostly under pKd 3.1 to 4

| Binder | pKd |
| --- | --- |
| B1 | below the threshold |
| B2 | 3.58 |

The binders below were run against TJP2_1, Q9UDY2 (assay: holdup assay). Conditions: plain residues with an end cap or a label only (N-terminal biotin on a linker: ado-ado).
Sequence of TJP2_1, Q9UDY2 (Q9UDY2 24-128): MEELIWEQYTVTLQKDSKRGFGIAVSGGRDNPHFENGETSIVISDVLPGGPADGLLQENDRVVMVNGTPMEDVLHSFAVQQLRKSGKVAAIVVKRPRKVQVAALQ
Parameters: key: below the threshold = too weak to quantify, mostly under pKd 3.1 to 4

| Binder | pKd |
| --- | --- |
| B1 | below the threshold |
| B2 | below the threshold |

Each binder was assayed against GRIP2_3, Q9C0E4 (assay: holdup assay). Conditions: plain residues with an end cap or a label only (N-terminal biotin on a linker: ado-ado).
Sequence of GRIP2_3, Q9C0E4 (Q9C0E4 238-339): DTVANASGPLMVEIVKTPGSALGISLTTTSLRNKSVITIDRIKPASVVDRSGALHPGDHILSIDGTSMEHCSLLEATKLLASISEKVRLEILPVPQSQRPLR
Parameters: key: below the threshold = too weak to quantify, mostly under pKd 3.1 to 4

| Binder | pKd |
| --- | --- |
| B1 | below the threshold |
| B2 | below the threshold |

The binders below were run against PDZRN4_1, Q6ZMN7 (assay: holdup assay). Conditions: plain residues with an end cap or a label only (N-terminal biotin on a linker: ado-ado).
Sequence of PDZRN4_1, Q6ZMN7 (Q6ZMN7 213-318): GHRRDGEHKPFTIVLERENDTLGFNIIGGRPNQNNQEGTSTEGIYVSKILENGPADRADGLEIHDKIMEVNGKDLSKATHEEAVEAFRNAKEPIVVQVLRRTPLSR
Parameters: key: below the threshold = too weak to quantify, mostly under pKd 3.1 to 4

| Binder | pKd |
| --- | --- |
| B1 | 3.66 |
| B2 | 4.98 |

These binders were tested against MAGI2_2, Q86UL8 (assay: holdup assay). Conditions: plain residues with an end cap or a label only (N-terminal biotin on a linker: ado-ado).
Sequence of MAGI2_2, Q86UL8 (Q86UL8 410-522): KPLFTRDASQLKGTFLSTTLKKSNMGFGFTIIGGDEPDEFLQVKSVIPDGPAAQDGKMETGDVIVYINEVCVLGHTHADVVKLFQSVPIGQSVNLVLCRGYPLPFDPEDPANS
Parameters: key: below the threshold = too weak to quantify, mostly under pKd 3.1 to 4

| Binder | pKd |
| --- | --- |
| B1 | below the threshold |
| B2 | 3.76 |

Each binder was assayed against GORASP2, Q9H8Y8 (assay: holdup assay). Conditions: plain residues with an end cap or a label only (N-terminal biotin on a linker: ado-ado).
Parameters: key: below the threshold = too weak to quantify, mostly under pKd 3.1 to 4

| Binder | pKd |
| --- | --- |
| B1 | 4.16 |
| B2 | 3.51 |

These binders were tested against HTRA2, O43464 (assay: holdup assay). Conditions: plain residues with an end cap or a label only (N-terminal biotin on a linker: ado-ado).
Sequence of HTRA2, O43464 (O43464 355-458): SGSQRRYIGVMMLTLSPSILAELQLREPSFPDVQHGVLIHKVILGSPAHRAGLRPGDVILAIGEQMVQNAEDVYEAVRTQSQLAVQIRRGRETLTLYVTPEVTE
Parameters: key: below the threshold = too weak to quantify, mostly under pKd 3.1 to 4

| Binder | pKd |
| --- | --- |
| B1 | below the threshold |
| B2 | below the threshold |

The binders below were run against T10, TJP3_3, O95049 (assay: holdup assay). Conditions: plain residues with an end cap or a label only (N-terminal biotin on a linker: ado-ado).
T10 sequence (O95049 375-456, limits assumed, looked up): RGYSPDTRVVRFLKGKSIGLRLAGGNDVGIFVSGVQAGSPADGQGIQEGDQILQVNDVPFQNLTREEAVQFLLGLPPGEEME
Parameters: key: below the threshold = too weak to quantify, mostly under pKd 3.1 to 4

| Binder | pKd |
| --- | --- |
| B1 | below the threshold |
| B2 | 3.57 |
